The values that follow come from PMC10643666.

This test concerns the target ZIKV envelope (E) protein, HA-tagged. The test can be described thus: co-immunoprecipitation (HA-specific IP) with densitometry of immunoblots. The following applies: HEK 293T cells, lysed 18 h after transfection; n = 4; parent: est. 0.93; read off a plot. (Immunoblotting shows a protein as a band on a membrane.)
ZIKV prM protein, wild type K60L; Y63A: the ratio to parent (fold E; mut:WT) stood at 1.7.

ZIKV prM protein, wild type K60L; Y63S: the ratio to parent (fold E; mut:WT) was found to be 0.9.

As for ZIKV prM protein, wild type R38L; F42A, the ratio to parent (fold E; mut:WT) worked out at 1.6.

On to ZIKV prM protein, wild type R38L; F42S, for which the ratio to parent (fold E; mut:WT) amounted to 0.93.
